Key:
[1] = MEMS DSC measurement of lysozyme unfolding; type: physicochemical; settings: lysozyme 1 to 20 mg/mL in 0.1 M Glycine-HCl buffer (pH 2.5); scan 25-75° C. at 5° C./min
Description: DSC measurements of biomolecules were performed using the calibrated microdevice, whose sample chamber and reference chamber were respectively filled with biological sample and buffer solutions, scanned in a range of temperature of interest. The temperature sensors were used to monitor the temperatures of calorimetric chambers while the device output was obtained in real time to compute the biomolecular thermal power. Before DSC measurements, the baseline in device output, i.e., the thermopile output voltage in the absence of a differential power input, during temperature scanning was measured with both calorimetric chambers filled with buffer solutions. Biological sample and buffer solutions were degassed with a vacuum chamber built in-house, metered with micropipettes, and introduced by a syringe pump (New Era Pump Systems, NE 1000).
The calibrated MEMS DSC device was employed to characterize protein unfolding, a common type of biomolecular conformational transition.
The thermopile output voltage as a function of temperature, corrected by baseline subtraction, was measured at varying protein concentrations ranging from 1 to 20 mg/mL (FIG. 10). […]

[2] = MEMS AC-DSC measurement of lysozyme unfolding; type: physicochemical
Source text: The DSC measurement system was configured similarly to that of Example 2. The microdevice was also placed in a thermal enclosure built in-house. The temperature of the sample stage in the thermal enclosure was controlled in closed-loop via a proportional-integral-derivative (PID) algorithm implemented by a commercial temperature controller (Lakeshore 331). The on-chip microheaters driven by a DC power supply (Agilent E3631A) were used to generate a constant differential power input, while for modulated heating, a square-wave AC voltage generated by a waveform generator (Agilent 33220A) was applied (FIG. 13). […] During device calibration, the thermopile output voltage was measured by a nanovoltmeter (Agilent 34420A), while during AC-DSC measurement, the amplitude and phase of thermopile voltage were measured by a lock-in amplifier (Stanford Research Systems SR830) referenced by the same AC modulation square wave from the waveform generator. […]
The methods for calibrating the DC performance of the MEMS device were substantially the same as described in Example 2. The baseline in device output, i.e., the thermopile voltage with no differential power input during temperature scanning, was measured with both chambers filled with buffer solutions. […]

[3] = typical range; cited from earlier work

Substance: lysozyme
- melting temperature Tm [1]: approximately 55 °C
- total change of molar enthalpy (ΔH) of unfolding [1]: approximately 450 kJ/mol
- apparent melting temperature (Tm) ([2]; 10 and 20 mg/mL in 0.1 M Glycine-HCl buffer, pH 2.5, 25 to 82° C. at 5° C./min, modulation 1, 5 or 10 Hz): 55-58 °C
- difference in the specific heat capacity (Δc) between native and unfolded states ([2]; regardless of the modulation frequency): 3.0 kJ/mol·K
- Tm, published data [3]: 55-58.9 °C
- ΔH of unfolding, published data [3]: 90.1 to 105 kcal/mol

— patent publication US9513240B2, “MEMS-based calorimeter, fabrication, and use thereof” (The Trustees of Columbia University in the City of New York, priority 2011, dated 2016)
